Results from patent US20240343802A1 (Zymeworks, published 2024).
Changes are numbered by the printed parent chain. In names and notes the source's numbering stands. Read-outs that look alike come from different tables or passages of the source.

Legend:
[1] = biological target: T1, CD19 on CD19-expressing Raji B cells (human, UniProt P15391 20-556); test: FACS, Raji cells
T1 construct: whole, on cells
T1 sequence (looked up): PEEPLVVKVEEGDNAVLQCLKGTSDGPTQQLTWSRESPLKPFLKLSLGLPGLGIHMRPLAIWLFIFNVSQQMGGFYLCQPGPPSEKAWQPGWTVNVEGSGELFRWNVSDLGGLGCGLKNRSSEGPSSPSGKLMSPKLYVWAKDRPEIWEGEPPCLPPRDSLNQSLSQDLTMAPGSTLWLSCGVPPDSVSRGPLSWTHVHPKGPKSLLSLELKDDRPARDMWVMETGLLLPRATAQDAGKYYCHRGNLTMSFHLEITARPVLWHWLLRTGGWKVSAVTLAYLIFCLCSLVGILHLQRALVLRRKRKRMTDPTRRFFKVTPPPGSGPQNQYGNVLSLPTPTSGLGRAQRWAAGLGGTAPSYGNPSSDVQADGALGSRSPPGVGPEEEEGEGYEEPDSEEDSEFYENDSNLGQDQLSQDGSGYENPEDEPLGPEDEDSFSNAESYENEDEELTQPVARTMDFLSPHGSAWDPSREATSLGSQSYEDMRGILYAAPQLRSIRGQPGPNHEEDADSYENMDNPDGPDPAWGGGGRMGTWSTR

[2] = biological target: T2, CD32aWT (UniProt P12318 36-218); test: SPR, antibody captured, FcγR injected
T2 construct: also called CS32a
T2 sequence (looked up): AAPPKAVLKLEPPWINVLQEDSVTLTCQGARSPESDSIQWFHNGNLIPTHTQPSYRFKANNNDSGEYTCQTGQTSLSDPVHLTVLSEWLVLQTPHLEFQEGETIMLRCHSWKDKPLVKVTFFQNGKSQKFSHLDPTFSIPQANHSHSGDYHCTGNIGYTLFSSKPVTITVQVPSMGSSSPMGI

[3] = biological target: T3, CD32bWT (UniProt P31994 43-217); test: SPR, antibody captured, FcγR injected
T3 sequence (looked up): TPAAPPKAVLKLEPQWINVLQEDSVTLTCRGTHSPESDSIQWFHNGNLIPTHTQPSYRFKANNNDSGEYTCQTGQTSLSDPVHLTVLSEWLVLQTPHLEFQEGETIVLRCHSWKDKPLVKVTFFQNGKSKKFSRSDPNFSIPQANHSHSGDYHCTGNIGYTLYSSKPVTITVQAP

[4] = biological target: T4, CD3 on CD3-expressing T cells (Jurkat, HPB-ALL) (UniProt P07766 23-207); test: whole cell binding by FACS on CD3-expressing Jurkat T cells; concentration not shown
T4 construct: whole, on cells; A multi-chain complex on cells; also called CD3 complex

[5] = biological target: T5, cynomologous CD3 receptor antigen (coated, ELISA) (cynomolgus [Macaca fascicularis], UniProt Q95LI5 22-117); test: ELISA on coated cynomolgus CD3 receptor antigen ('Cyno-CD3-HEK'), anti-human Fcgamma specific secondary antibody, TMB, OD450
T5 sequence (looked up): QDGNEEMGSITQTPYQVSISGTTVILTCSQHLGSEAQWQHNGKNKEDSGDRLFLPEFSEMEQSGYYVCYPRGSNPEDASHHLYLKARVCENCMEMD

[6] = biological target: T4, CD3 on CD3-expressing T cells (Jurkat, …); test: FACS, Jurkat cells
[7] = biological target: T4, CD3 on CD3-expressing T cells (Jurkat, …); test: FACS, HPB-ALL cells
[8] = biological target: T4, CD3 on CD3-expressing T cells (Jurkat, …); test: FACS, HBP-ALL T cells
[9] = biological target: CD16aWT (UniProt P08637 17-208); test: SPR, antibody captured, FcγR injected
[10] = biological target: T6, mouse CD19 on Mouse spleen cells (mouse, UniProt P25918); test: FACS on freshly isolated mouse spleen cells, Mean RFU normalized to human IgG
T6 construct: on the surface of freshly isolated mouse spleen cells
T6 sequence (CD19 on the cell surface, looked up): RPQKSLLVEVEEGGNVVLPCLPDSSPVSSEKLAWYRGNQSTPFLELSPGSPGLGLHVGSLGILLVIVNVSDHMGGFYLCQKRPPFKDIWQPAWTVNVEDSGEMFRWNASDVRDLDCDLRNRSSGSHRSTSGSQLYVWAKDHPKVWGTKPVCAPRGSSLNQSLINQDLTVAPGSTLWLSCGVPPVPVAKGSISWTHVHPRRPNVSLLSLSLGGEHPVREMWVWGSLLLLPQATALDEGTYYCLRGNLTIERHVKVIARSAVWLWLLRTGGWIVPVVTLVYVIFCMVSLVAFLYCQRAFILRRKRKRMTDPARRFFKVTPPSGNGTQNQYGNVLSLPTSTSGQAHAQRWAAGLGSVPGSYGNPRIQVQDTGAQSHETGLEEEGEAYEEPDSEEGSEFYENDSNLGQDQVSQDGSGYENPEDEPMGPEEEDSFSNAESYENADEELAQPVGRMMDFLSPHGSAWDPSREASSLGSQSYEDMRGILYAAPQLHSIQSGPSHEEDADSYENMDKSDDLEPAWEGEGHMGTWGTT

[11] = biological target: T1, CD19 on CD19-expressing Raji B cells; test: FACS, Raji cells; remark: listed apart in the source
[12] = biological target: T1, CD19 on CD19-expressing Raji B cells; test: whole cell binding by FACS on Raji B cells, RFU against concentration (nM, log axis)

B1: v1379, anti-CD19 BiTE (VL-VH) scFv / anti-CD3 BiTE (VH-VL) scFv heterodimeric Fc (bispecific antibody)
chain 1: DIQLTQSPASLAVSLGQRATISCKASQSVDYDGDSYLNWYQQIPGQPPKLLIYDASNLVSGIPPRFSGSGSGTDFTLNIHPVEKVDAATYHCQQSTEDPWTFGGGTKLEIKGGGGSGGGGSGGGGSQVQLQQSGAELVRPGSSVKISCKASGYAFSSYWMNWVKQRPGQGLEWIGQIWPGDGDTNYNGKFKGKATLTADESSSTAYMQLSSLASEDSAVYFCARRETTTVGRYYYAMDYWGQGTTVTVSSAAEPKSSDKTHTCPPCPAPELLGGPSVFLFPPKPKDTLMISRTPEVTCVVVDVSHEDPEVKFNWYVDGVEVHNAKTKPREEQYNSTYRVVSVLTVLHQDWLNGKEYKCKVSNKALPAPIEKTISKAKGQPREPQVYVYPPSRDELTKNQVSLTCLVKGFYPSDIAVEWESNGQPENNYKTTPPVLDSDGSFALVSKLTVDKSRWQQGNVFSCSVMHEALHNHYTQKSLSLSPGK
chain 2: not shown
notes: WT effector Fc; copies: 1 + 1
Work on B1 yielded a Kd [1] of 2.12 nM, a Kd [2] of 600 nM and a Kd [3] of 470 nM.

B2: one-armed anti-CD19 antibody (v869: anti-CD19 BiTE scFv (VL-VH) on chain A, Fc only on chain B) (antibody)
chain 1: B1 chain 1 with V387T
chain 2: not shown
notes: also called anti-CD19 OAA; anti-CD19 one arm constructs
B2: no binding [4].

B3: v1666-213-A (bispecific antibody)
chain 1: not shown
chain 2: B1 chain 1 with L271A, L272A, D302S, Y388L, T403L, K429L, T431W, A442F, V444Y
B3: no binding (tested: 300 nM) [5].

B4: v875, bispecific anti-CD19 BiTE (VL-VH) scFv / anti-CD3 OKT3 (VL-VH) scFv on a heterodimeric IgG1 Fc (bispecific antibody)
chain 1: B1 chain 1 with V387T
chain 2: not shown
notes: Chain A/B is assigned by order only; copies: 1 + 1
For B4, the “Bmax (OD450)” value [6] was 1.59 OD450, the Kd [6] was 21.4 nM and the Kd [7] was 4.7 nM. The Kd [8] was 19.1 nM, the Kd [9] was 1000 nM and the Kd [2] was 590 nM. For the same binder, the Kd [3] was 430 nM and the binding result [10] was “no binding (tested: 100 nM)”.

B5: v1381, anti-CD19 BiTE (VL-VH) scFv / anti-CD3 BiTE (VH-VL) scFv heterodimeric Fc with N297A (bispecific antibody)
chain 1: B1 chain 1 with N334A
chain 2: not shown
notes: Fc knock-out N297A on both chains; copies: 1 + 1
In the case of B5, the Bmax [1] is reported as 13900, the Kd [1] is reported as 2.36 nM and the binding result [9] is reported as “no binding (tested: FcγR injected up to 10,000 nM)”. B5: no binding (tested: FcγR injected up to 10,000 nM) [2]; no binding (tested: FcγR injected up to 10,000 nM) [3].

B6: v873, bispecific anti-CD19 BiTE (VL-VH) scFv / anti-CD3 BiTE (VH-VL) scFv on a heterodimeric IgG1 Fc (bispecific antibody)
chain 1: B1 chain 1 with V387T
chain 2: not shown
notes: chain A/B is assigned by order only; also called bispecific CD19-CD3(VH-VL-BiTE)
With B6 the Kd [11] was 2.7 nM, the binding result [10] was “no binding (tested: 100 nM)” and the “EC50 (read off the curve)” value [12] was roughly 3 nM.
